# In PMC3649970, “A Unique Spumavirus Gag N-terminal Domain with Functional Properties of Orthoretroviral Matrix and Capsid” (PLoS Pathogens, 2013):
# B1: PFV-Gag-NtD (amino terminal domain of Prototypic Foamy Virus Gag, residues 1-179) [Prototypic foamy virus (PFV)] / PFV Env leader peptide residues 1-20 [Prototypic foamy virus (PFV)] (parent)
# chain 1: MASGSNVEEYELDVEALVVILRDRNIPRNPLHGEVIGLRLTEGWWGQIERFQMVRLILQDDDNEPLQRPRYEVIQRAVNPHTMFMISGPLAELQLAFQDLDLPEGPLRFGPLANGHYVQGDPYSSSYRPVTMAETAQMTRDELEDVLNTQSEIEIQMINLLELYEVETRALRRQLAERS
# chain 2: MAPPMTLQQWIIWKKMNKAH
# Variants of: B1
# Assay: sedimentation velocity analytical ultracentrifugation
# Conditions: with PFV Env leader peptide residues 1-20 [Prototypic foamy virus (PFV)]; 75 µM equimolar mixtures of Gag-NtDs with Env(1-20); read off a plot
row,Variant,Ka
1,chain 1 V18S L21S,0.16 10^5 M^-1
2,chain 1 N29Q,1.4 10^5 M^-1
3,chain 1 V18S,0.6 10^5 M^-1
4,chain 1 L21S,0.29 10^5 M^-1
5,chain 1 L21N,0.3 10^5 M^-1
6,chain 1 V14S L21S,0.07 10^5 M^-1
7,chain 1 L17S,0.71 10^5 M^-1
8,chain 1 V14S,0.51 10^5 M^-1
9,chain 1 V14S V18S,0.18 10^5 M^-1
